Source: article PMC6624267

Biological target: CARD11^8–172 (human) (UniProt Q9BXL7)
Assay: SEC-MALS; CARD11^8–172 alone; measured 36.5 kDa against 39.4 kDa expected for a dimer

stoichiometry N: 2
Substance: CARD11^8–172 (from UniProt Q9BXL7 8-172) (domain or fragment)
